Experimental data from patent US20190134223A1 (TEMPLE UNIVERSITY OF THE COMMONWEALTH SYSTEM OF HIGHER …, published 2019).

How the values were obtained:
[1] = molecular target: T1, full-length GRK2 (endogenous, mouse heart) (mouse (endogenous, in the hearts of the …, UniProt Q99MK8 1-689)); assay: anti-FLAG immunoprecipitation from cardiac lysates of TgβARKnt mice 4 weeks after Sham or TAC, western blot
T1 construct: GRK2 in the heart'; also called βARK1
T1 sequence (looked up): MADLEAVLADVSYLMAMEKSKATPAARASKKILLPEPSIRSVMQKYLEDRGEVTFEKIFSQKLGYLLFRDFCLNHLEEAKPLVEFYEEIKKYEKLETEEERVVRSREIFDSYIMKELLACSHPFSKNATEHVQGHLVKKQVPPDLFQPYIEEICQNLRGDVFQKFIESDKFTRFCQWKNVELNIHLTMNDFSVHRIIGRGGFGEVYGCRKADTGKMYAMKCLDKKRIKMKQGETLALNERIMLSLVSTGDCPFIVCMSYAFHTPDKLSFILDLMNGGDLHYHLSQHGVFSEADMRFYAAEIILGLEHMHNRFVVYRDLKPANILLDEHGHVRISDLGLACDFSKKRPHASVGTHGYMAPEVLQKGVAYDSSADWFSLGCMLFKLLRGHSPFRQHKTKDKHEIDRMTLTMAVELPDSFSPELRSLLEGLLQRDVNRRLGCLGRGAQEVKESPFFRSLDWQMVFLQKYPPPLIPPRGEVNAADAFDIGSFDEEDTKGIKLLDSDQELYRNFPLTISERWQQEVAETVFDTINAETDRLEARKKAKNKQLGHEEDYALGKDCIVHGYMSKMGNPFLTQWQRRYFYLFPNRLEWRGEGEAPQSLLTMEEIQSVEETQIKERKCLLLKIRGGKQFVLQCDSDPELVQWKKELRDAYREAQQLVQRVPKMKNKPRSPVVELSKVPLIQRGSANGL

[2] = molecular target: T2, endogenous Gαq in the mouse heart (mouse (endogenous, in the hearts of the …, UniProt P21279 1-359)); assay: anti-FLAG immunoprecipitation from cardiac lysates of TgβARKnt mice 4 weeks after Sham or TAC, western blot with anti-Gαq antibody
T2 construct: Endogenous protein in cardiac lysates, detected by western blot with anti-Gαq antibody; also called Gq; Gaq
T2 sequence (looked up): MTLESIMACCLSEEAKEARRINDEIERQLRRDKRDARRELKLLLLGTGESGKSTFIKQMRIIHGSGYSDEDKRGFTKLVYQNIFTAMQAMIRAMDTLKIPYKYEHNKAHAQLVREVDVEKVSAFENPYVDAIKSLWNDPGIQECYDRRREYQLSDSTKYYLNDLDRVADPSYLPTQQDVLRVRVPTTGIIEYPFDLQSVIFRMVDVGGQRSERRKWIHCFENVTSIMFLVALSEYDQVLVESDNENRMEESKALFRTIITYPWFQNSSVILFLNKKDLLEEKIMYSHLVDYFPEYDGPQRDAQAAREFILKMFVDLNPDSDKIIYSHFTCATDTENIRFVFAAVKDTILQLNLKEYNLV

B1: flag-tagged βARKnt (bovine GRK2 residues 50-145 with a carboxy-terminal flag-tag) (peptide)
chain: RGEVTFEKIFSQKLGYLLFRDFCLKHLEEAKPLVEFYEEIKKYEKLETEEERLVCSREIFDTYIMKELLACSHPFSKSAIEHVQGHLVKKQVPPDL
notes: An initiator Met is not described; also called βARKnt peptide; βARKnt-flag; not shown: carboxy-terminal flag-tag
- binding result [1]: no binding
- binding result [2]: no binding
